Data as given in paper PMC8055535.

Target: light-dependent protochlorophyllide oxidoreductase (LPOR), Zea mays (Zea mays (endogenous in maize etioplasts))
Assay: cryo-EM structure; electron cryo-tomography and subtomogram averaging of membrane tubes from ruptured maize etioplasts, native membranes; low-salt pH 8.0 buffer with 150 mM trehalose in place of sorbitol; tube averages at 18.2 and 18.1 Å, sub-boxes of dimers at 9 Å

stoichiometry N: 2
Substance: light-dependent protochlorophyllide oxidoreductase (LPOR), Zea mays (enzyme)
